Data published in paper PMC4430413.

Target: monomeric Uox conjugated to HSA (HSA-conjugated Uox-W160.174AzF subunit of Uox-HSA) (Aspergillus flavus | human) (UniProt P02768)
Experiment: co-purification by ion exchange chromatography, read by SDS-PAGE

UniProt P02768, sequence (P02768 whole entry, looked up): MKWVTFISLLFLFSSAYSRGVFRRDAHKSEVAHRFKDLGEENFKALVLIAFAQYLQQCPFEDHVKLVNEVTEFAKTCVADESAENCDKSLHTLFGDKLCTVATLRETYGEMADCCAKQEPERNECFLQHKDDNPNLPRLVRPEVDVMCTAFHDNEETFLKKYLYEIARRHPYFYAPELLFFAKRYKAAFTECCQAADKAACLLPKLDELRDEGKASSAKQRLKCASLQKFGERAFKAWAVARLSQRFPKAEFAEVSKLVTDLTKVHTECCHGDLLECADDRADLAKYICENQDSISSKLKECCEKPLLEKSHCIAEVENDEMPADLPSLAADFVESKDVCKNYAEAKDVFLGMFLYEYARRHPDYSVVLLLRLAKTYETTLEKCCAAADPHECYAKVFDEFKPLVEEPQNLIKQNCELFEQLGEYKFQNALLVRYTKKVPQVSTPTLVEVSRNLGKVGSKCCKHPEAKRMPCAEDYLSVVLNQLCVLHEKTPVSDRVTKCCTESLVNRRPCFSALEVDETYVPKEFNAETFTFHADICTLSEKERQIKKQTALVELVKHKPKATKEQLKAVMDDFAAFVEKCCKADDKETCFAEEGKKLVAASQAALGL

AzF-incorporated urate oxidase (Uox-W160.174AzF) (enzyme)
molar ratio of unreacted Uox monomer to monomeric Uox conjugated to HSA: 2.5
